Here are results for 2 molecules from PMC2173853 (The Journal of Cell Biology, 2002).

One may read the stoichiometry N as a count of units in the complex or per binding partner.

Sequences and labels used below:
B2: GST–Sed5p (entire cytosolic region) (domain or fragment)
chain: MNIKDRTSEFQQSVLSYKKRNKNFREQQRERLQEKESENFANNTTGNGKSVSEFQKKASGIAHEISSTAQLLSKLAVLAKRKPMFNDNPVEIAELSFLIKRKIYAIEQSLVQLSQLKKTDVNGNTSNQSSKQPSAVQHSKNVVNLLNTQMKNISGSFKDVLEERQRLEMANKDRWQKLTTDTGHAPADDQTQSNHAADLTTYNNSNPFMTSLLDESSEKNNNSSNQGELSFPQNDSQLMLMEEGQLSNNVYLQERNRAVETIESTIQEVGNLFQQLASMVQEQGEVIQRIDANVDDIDLNISGAQRELLKYFDRIKSNRWLAAK

What all share (test): pull-down
For assay [1], the target named is T1, GST–Ykt6p (amino acids 1–195) (S. cerevisiae, UniProt P36015 1-195).
T1 sequence: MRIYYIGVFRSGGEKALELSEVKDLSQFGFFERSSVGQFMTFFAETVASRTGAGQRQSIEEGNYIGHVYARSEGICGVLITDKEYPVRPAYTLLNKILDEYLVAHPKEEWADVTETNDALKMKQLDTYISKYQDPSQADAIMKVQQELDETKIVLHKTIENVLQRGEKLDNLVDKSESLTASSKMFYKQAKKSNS

The target in assay [2] is T2, heterodimeric GST–Sed5p–His10-Sly1p complex bound to beads (S. cerevisiae, UniProt Q01590;P22213).
T2 sequence 1: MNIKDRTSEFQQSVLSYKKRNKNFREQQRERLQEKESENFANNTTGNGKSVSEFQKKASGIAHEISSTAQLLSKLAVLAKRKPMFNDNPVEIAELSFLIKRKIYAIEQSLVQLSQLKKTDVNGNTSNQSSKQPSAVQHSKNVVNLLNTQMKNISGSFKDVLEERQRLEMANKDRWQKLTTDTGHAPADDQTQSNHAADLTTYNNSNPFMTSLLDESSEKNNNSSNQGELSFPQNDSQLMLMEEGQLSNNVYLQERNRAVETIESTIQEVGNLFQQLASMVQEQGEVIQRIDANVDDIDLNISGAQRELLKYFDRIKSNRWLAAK
T2 sequence 2: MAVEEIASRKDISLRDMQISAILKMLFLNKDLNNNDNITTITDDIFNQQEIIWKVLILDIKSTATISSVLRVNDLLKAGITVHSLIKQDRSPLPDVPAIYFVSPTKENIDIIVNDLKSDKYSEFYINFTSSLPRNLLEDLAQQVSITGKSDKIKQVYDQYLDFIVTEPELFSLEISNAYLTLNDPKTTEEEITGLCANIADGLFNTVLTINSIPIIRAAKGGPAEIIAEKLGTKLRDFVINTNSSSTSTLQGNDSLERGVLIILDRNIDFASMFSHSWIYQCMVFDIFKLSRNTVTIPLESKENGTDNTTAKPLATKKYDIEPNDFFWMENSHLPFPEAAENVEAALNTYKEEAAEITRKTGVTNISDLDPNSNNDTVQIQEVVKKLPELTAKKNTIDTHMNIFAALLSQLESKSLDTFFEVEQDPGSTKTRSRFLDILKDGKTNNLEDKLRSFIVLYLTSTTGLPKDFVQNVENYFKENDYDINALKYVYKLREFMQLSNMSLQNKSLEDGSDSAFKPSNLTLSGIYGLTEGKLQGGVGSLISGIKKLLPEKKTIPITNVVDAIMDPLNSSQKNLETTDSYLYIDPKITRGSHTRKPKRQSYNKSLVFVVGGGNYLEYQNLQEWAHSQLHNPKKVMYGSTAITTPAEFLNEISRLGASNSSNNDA

In assay [3] the target is B2.
For assay [4], the target named is T3, His10-Sly1p (NH2-terminally His10-tagged full-length Sly1p) (S. cerevisiae, UniProt P22213 1-666).
T3 sequence: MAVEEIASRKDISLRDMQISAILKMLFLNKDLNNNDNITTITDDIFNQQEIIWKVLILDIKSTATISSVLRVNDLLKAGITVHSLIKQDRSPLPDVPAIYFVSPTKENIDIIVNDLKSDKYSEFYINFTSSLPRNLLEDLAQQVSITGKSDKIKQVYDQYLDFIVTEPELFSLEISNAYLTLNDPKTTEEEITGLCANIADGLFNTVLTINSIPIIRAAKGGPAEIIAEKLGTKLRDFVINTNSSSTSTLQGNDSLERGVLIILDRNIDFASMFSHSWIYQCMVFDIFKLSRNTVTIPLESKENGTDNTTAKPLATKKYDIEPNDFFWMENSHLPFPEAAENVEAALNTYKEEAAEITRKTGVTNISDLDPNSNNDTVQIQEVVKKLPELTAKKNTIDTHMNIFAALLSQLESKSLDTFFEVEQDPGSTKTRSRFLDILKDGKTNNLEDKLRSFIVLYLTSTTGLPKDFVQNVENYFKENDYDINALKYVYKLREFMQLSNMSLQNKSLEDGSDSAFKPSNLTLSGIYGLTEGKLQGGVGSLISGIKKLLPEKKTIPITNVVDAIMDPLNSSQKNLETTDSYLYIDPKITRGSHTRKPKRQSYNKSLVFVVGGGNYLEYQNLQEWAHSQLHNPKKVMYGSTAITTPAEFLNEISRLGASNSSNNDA

B1: His6-Sec22p (amino acids 1–188) (domain or fragment)
chain: MIKSTLIYREDGLPLCTSVDNENDPSLFEQKQKVKIVVSRLTPQSATEATLESGSFEIHYLKKSMVYYFVICESGYPRNLAFSYLNDIAQEFEHSFANEYPKPTVRPYQFVNFDNFLQMTKKSYSDKKVQDNLDQLNQELVGVKQIMSKNIEDLLYRGDSLDKMSDMSSSLKETSKRYRKSAQKINFD
In the case of B1, the binding result in assay [1] is on record as “binds”. Moreover, the entries for the “stoichiometry N” value in assay [2] and in assay [3] were 1.4 per Sed5p and 1.3 per Sed5p, respectively.

Take B2: the binding result in assay [4] is given as “binds”.
